In general, Ki refers to a dissociation constant, usually derived from enzyme kinetics or from competition with a known ligand. Higher therefore signals lower affinity.

Data on 17 molecules can be found in patent US20220088146A1 (PALATIN TECHNOLOGIES, published 2022).

Experiment [1] has as its target T1, human melanocortin-4 receptor (human, UniProt P32245 1-332).
T1 construct: whole, on cells; Ki assay used membrane homogenates of HEK-293 cells expressing recombinant hMC4r; also called MC4r; hMC4r
Briefly: [I125]-NDP-α-MSH competition, hMC4r HEK-293 membranes.

The target in experiment [2] is T2, human melanocortin-1 receptor (human, UniProt Q01726 1-317). Put plainly: cell-based or functional assay.
T2 sequence (Q01726 whole entry): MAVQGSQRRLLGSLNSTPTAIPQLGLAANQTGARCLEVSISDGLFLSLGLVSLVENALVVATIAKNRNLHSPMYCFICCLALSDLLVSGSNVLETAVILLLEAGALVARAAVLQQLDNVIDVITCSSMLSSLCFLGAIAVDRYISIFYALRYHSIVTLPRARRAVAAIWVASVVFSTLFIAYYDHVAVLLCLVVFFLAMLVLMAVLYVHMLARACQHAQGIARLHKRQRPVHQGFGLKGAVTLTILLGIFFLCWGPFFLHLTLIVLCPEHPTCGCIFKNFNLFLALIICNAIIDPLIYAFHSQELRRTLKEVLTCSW
In experiment [3] the target is T2, human melanocortin-1 receptor. Put plainly: [I125]-NDP-α-MSH competition, hMC1r HEK-293 membranes.
The target in experiment [4] is melanocortin-2 receptor (UniProt Q01718 1-297). Put plainly: cell-based or functional assay.
melanocortin-2 receptor, sequence (Q01718 whole entry): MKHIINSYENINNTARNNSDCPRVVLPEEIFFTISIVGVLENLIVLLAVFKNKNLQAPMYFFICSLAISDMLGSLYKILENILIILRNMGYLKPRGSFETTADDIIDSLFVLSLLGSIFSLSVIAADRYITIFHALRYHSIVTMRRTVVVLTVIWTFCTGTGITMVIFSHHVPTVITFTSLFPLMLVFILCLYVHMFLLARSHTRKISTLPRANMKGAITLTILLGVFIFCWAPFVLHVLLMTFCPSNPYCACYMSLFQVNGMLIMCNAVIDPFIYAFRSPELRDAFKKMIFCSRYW
Experiment [5] concerns the target melanocortin-5 receptor (UniProt P33032 1-325). Briefly: cell-based or functional assay.
Experiment [6] has as its target melanocortin-3 receptor (UniProt P41968 1-323). Put plainly: cell-based or functional assay.

Numbered stars: 1 amine (or outer) side, 2 acyl side, 3 side chain; on linkers, the order of the positions; unused ones are H or OH. Bridge positions count the residues as written; N and C are the ends. Square brackets hold non-standard residues; d marks the D form. * marks the point of attachment. Cyclohexanecarbonyl = O=C(C1CCCCC1)*; Cyclohexylacetyl = O=C(CC1CCCCC1)*; Cyclopentylacetyl = O=C(CC1CCCC1)*; Cyclopropanecarbonyl = O=C(C1CC1)*; Hydrocinnamoyl = O=C(CCc1ccccc1)*; Suc = O=C(CCC(=O)[*:2])[*:1]; Heptanoyl = CCCCCCC(=O)*; Nle = CCCC[C@H](N)C(=O)O; Dab = NCC[C@H](N)C(=O)O; Dap = NC[C@H](N)C(=O)O; Hexanoyl = CCCCCC(=O)*; Pentanoyl = CCCCC(=O)*; PhAc = O=C(Cc1ccccc1)*; Butyryl = CCCC(=O)*

T1 sequence (P32245 whole entry): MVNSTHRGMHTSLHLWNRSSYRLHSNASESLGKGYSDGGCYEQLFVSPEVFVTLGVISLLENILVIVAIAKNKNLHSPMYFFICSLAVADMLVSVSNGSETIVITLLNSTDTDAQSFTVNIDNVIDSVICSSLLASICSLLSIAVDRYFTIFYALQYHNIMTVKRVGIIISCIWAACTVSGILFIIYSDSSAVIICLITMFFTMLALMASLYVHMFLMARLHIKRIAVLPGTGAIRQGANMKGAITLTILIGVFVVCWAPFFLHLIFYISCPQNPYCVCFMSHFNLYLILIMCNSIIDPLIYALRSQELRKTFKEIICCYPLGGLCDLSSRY
melanocortin-5 receptor, sequence (P33032 whole entry): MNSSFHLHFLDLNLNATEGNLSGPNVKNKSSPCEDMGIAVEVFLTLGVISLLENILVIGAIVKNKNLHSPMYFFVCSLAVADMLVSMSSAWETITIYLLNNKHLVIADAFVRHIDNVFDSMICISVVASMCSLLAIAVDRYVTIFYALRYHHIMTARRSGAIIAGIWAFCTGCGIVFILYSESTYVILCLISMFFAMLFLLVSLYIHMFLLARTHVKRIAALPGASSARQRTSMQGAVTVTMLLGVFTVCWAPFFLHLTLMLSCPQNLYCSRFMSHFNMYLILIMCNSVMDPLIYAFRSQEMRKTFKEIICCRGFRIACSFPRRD
melanocortin-3 receptor, sequence (P41968 whole entry): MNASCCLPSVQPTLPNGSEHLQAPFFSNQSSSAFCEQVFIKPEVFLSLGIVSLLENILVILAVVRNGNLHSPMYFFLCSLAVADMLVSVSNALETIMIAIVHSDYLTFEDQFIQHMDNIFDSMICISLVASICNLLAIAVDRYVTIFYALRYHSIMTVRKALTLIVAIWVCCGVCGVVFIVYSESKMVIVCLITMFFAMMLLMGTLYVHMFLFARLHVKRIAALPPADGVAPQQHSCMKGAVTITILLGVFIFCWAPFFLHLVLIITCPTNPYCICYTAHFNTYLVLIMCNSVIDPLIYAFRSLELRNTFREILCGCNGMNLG

Ac-[Nle]CH[dF]RCW-NH2 (disulfide 2-6, also called 9.5) [Ac-Nle-cyclo(Cys-His-D-Phe-Arg-Cys)-Trp-NH2] yielded a Ki in experiment [1] of 540 nM. The “MC-1 Emax (average; cAMP HBL)” value in experiment [2] is 87%.

B1: cyclo(Suc-His-Phe-Arg-Dab)-Trp-NH2 (peptide)
peptide: [Suc]HFR[Dab]W-NH2
modifications: lactam N-5
SMILES: N=C(N)NCCC[C@@H]1NC(=O)[C@H](Cc2ccccc2)NC(=O)[C@H](Cc2c[nH]cn2)NC(=O)CCC(=O)NCC[C@@H](C(=O)N[C@@H](Cc2c[nH]c3ccccc23)C(N)=O)NC1=O
notes: also called 9.14
Consider B1, for which the Ki amounted to 10000 nM in experiment [1] and 310 nM in experiment [3]. In experiment [2], the “MC-1 EC50 (average; cAMP HBL)” value was 31 nM. For the same molecule, the “MC-1 Emax (average; cAMP HBL)” value in experiment [2] was 80%.

Cyclopentylacetyl-EH[dF]R[Dab]W-NH2 (lactam 1-5, also called 9.21) [cyclopentyl acetyl-cyclo(Glu-His-D-Phe-Arg-Dab)-Trp-NH2]: in experiment [1], the Ki is 93 nM. Further, the “MC-1 Emax (average; cAMP HBL)” value in experiment [2] is 83%.

The molecule Hexanoyl-EH[dF]R[Dab]W-NH2 (lactam 1-5, also called 9.17) [CH3-(CH2)4-C(═O)-cyclo(Glu-His-D-Phe-Arg-Dab)-Trp-NH2] displayed a Ki in experiment [1] of 110 nM. Besides, the “MC-1 Emax (average; cAMP HBL)” value in experiment [2] was found to be 90%.

Heptanoyl-EH[dF]R[Dab]W-NH2 (lactam 1-5, also called 9.18) [CH3-(CH2)5-C(═O)-cyclo(Glu-His-D-Phe-Arg-Dab)-Trp-NH2] registered a Ki in experiment [1] of 100 nM. Besides, the “MC-1 Emax (average; cAMP HBL)” value in experiment [2] was 87%.

Consider Ac-SYSMEHFRWGKPV-NH2 (ligand) [α-MSH (Ac-Ser-Tyr-Ser-Met-Glu-His-Phe-Arg-Trp-Gly-Lys-Pro-Val-NH2)], for which, in experiment [4], the “Functional - CEREP (EC50; nM)” value was over 10000 nM.

Consider Hydrocinnamoyl-EH[dF]R[Dab]W-NH2 (lactam 1-5, also called 9.24) [phenyl propanoyl-cyclo(Glu-His-D-Phe-Arg-Dab)-Trp-NH2], for which the inhibition constant Ki in experiment [1] was 285 nM. In addition, the “MC-1 Emax (average; cAMP HBL)” value in experiment [2] amounted to 83%.

PhAc-EH[dF]R[Dab]W-NH2 (lactam 1-5, also called 9.23) [phenyl acetyl-cyclo(Glu-His-D-Phe-Arg-Dab)-Trp-NH2] gave a Ki in experiment [1] of 205 nM. In addition, the “MC-1 Emax (average; cAMP HBL)” value in experiment [2] was 82%.

For the molecule Ac-FEH[dF]R[Dab]W-NH2 (lactam 2-6, also called 9.13) [Ac-Phe-cyclo(Glu-His-D-Phe-Arg-Dab)-Trp-NH2], in experiment [1], the affinity corresponds to a Ki of 510 nM. In experiment [2], the “MC-1 Emax (average; cAMP HBL)” value was 75%.

Butyryl-EH[dF]R[Dab]W-NH2 (lactam 1-5, also called 9.15) [CH3-(CH2)2-C(═O)-cyclo(Glu-His-D-Phe-Arg-Dab)-Trp-NH2]: in experiment [1], the Ki came to 890 nM. Further, the “MC-1 Emax (average; cAMP HBL)” value in experiment [2] worked out at 91%.

The molecule Ac-[Nle]EHFR[Dab]W-NH2 (lactam 2-6, also called 9.8) [Ac-Nle-cyclo(Glu-His-Phe-Arg-Dab)-Trp-NH2] gave a Ki in experiment [1] of 10000 nM. The “MC-1 Emax (average; cAMP HBL)” value in experiment [2] was determined as 88%.

With Ac-[Nle]EH[dF]RKW-NH2 (lactam 2-6, also called 9.1) [Ac-Nle-cyclo(Glu-His-D-Phe-Arg-Lys)-Trp-NH2], affinity in experiment [1] was put at a Ki of 45 nM. The “MC-1 Emax (average; cAMP HBL)” value in experiment [2] worked out at 97%.

As to Cyclohexylacetyl-EH[dF]R[Dab]W-NH2 (lactam 1-5, also called 9.22) [cyclohexyl acetyl-cyclo(Glu-His-D-Phe-Arg-Dab)-Trp-NH2], in experiment [1], the affinity, expressed as Ki, was 63 nM. Also, the “MC-1 Emax (average; cAMP HBL)” value in experiment [2] was determined as 85%.

The molecule Cyclohexanecarbonyl-EH[dF]R[Dab]W-NH2 (lactam 1-5, also called 9.20) [cyclo-hexanoyl-cyclo(Glu-His-D-Phe-Arg-Dab)-Trp-NH2] returned a Ki in experiment [1] of 165 nM. Besides, the “MC-1 Emax (average; cAMP HBL)” value in experiment [2] was 79%.

Pentanoyl-EH[dF]R[Dab]W-NH2 (lactam 1-5, also called 9.16) [CH3-(CH2)3-C(═O)-cyclo(Glu-His-D-Phe-Arg-Dab)-Trp-NH2] registered a Ki in experiment [1] of 365 nM. For the same molecule, in experiment [2], the “MC-1 Emax (average; cAMP HBL)” value came to 89%.

B2: cyclo-propanoyl-cyclo(Glu-His-D-Phe-Arg-Dab)-Trp-NH2 (peptide)
peptide: Cyclopropanecarbonyl-EH[dF]R[Dab]W-NH2
modifications: lactam 1-5
SMILES: N=C(N)NCCC[C@@H]1NC(=O)[C@@H](Cc2ccccc2)NC(=O)[C@H](Cc2c[nH]cn2)NC(=O)[C@@H](NC(=O)C2CC2)CCC(=O)NCC[C@@H](C(=O)N[C@@H](Cc2c[nH]c3ccccc23)C(N)=O)NC1=O
notes: also called 9.19
For the molecule B2, the Ki in experiment [1] worked out at 640 nM; in experiment [3] it was 3 nM. In addition, in experiment [2], the “MC-1 Emax (average; cAMP HBL)” value was 83%.

Consider Ac-[Nle]EH[dF]R[Dap]W-NH2 (lactam 2-6) [Ac-Nle-cyclo(Glu-His-D-Phe-Arg-Dap)-Trp-NH2], for which the “Functional - CEREP (EC50; nM)” value in experiment [5], in experiment [4] and in experiment [6] was over 10000 nM throughout.
